Laboratory results taken from patent publication US20200102389A1.

Tests used:
[1] = target: modified human HLA-G β2M MHC class I complex (HLA-G specific amino acids replaced by HLA-A consensus amino acids) (human); test: SPR (Biacore), reference antibody against degrafted HLA-G complex
[2] = target: recombinant soluble human HLA-G β2M MHC class I complex, monomer (human); test: SPR (Biacore), reference antibody against monomeric wt HLA-G complex
[3] = target: human HLA-G expressed on cells (JEG3 naturally; SKOV3 HLA-G+ and PA-TU-8902 HLA-G+ transfectants) (human) (UniProt P17693); test: flow cytometry, JEG3 cells pre-incubated with antibody, competitor ILT2-Fc chimera

| Substance | Kd [1] [nM] | koff [1] [s⁻¹] | kon [1] [M⁻¹ s⁻¹] | t½ [1] [min] | Kd [2] [nM] | koff [2] [s⁻¹] | kon [2] [M⁻¹ s⁻¹] | t½ [2] [min] | Inhibition of ILT2 binding to Jeg3 cells [3] [%] |
| --- | --- | --- | --- | --- | --- | --- | --- | --- | --- |
| MEM/G9 (antibody) | 300 | 0.036 | 120000 | 0.3 | 7.7 | 0.0011 | 150000 | 10 | -27.9 |
| MEM-G/11 (antibody) | 13 | 0.0012 | 89000 | 10 | 12 | 0.00085 | 74000 | 14 |  |
